Test results published in patent US20170137511A1 (CALYPSO BIOTECH, published 2017).

Biological target: T1, human IL-15 (preparation not stated) (human, UniProt P40933 49-162, limits assumed)
T1 construct: also called recombinant IL-15; recombinant human IL-15
Experiment: ELISA screen of hybridoma supernatants

T1 sequence (P40933 49-162 limits assumed): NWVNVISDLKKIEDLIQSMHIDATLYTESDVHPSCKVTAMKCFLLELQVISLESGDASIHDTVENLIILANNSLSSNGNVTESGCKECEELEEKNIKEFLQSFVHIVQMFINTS

B1: mouse anti-IL-15 monoclonal antibody B-E29 (antibody, V domains shown)
VH: EVRLMASGGGLVKPGGSLKLSCAASEFTFSNYAMSWVRQTPEKRLEWVATISRGGDYTYYPDSVKGRFTISRDNAKNTLYLQMSSLRSEDTALYYCARRVSMITGGWAMDYWGQGTSVTVSS
VL: DVLMTQTPLSLPVSLGDQASISCRSSQSIVDITGNTYLEWYLQKPGQSPKLLIYKVFNRFSGVPDRFSGSGSGTDFTLKISRVEAEDLGLYYCFQDSFVPYTFGGGTKLEIK
notes: Mouse IgG1 (heavy chain) kappa (light chain); also called mouse B-E29; comparative antibody 1
binding result: binds
